# Data as given in US20230203134A1 (TRUSTEES OF COLUMBIA UNIVERSITY IN THE CITY OF NEW YORK, published 2023).
# Changes are numbered by the printed parent chain.
# B1: monoclonal antibody 4-20 (antibody, V domains shown)
# VH: QVQLLQSGAEVKKPGASVKVSCKASGYSFTSYYMHWVRQAPGQGLEWMGIINPSGGGTTYAQKFQGRVTMTRDTSTSTVYMELSSLRSEDTAVYYCARPGGGSYQEFDYWGQGTLVTVSS
# VL: DIQMTQSPSSLSASVGDRVTITCRASQSISSYLNWYQQKPGKAPKLLISAASSLQSGVPSRFSGSGSGTDFTLTISSLQPEDFATYYCQQSYNTLQVTFGGGTKVEIK
# notes: also called mAb 4-20; antibody number 4-20
# B2: monoclonal antibody 2-30 (antibody, V domains shown)
# VH: QVQLVESGGGVVQPGRSLRLSCAASGFTFSSYTMHWVRQAPGKGLEWVAAISYDGNNKYYADSVKGRFTISRDNSKNTLYLQMNSLRAEDTAVYYCARSILYGGGMDVWGQGTTVTVSS
# VL: DIQLTQSPSSLSASVGDRVTITCRASQGISSYLAWYQQKPGQAPKLLIYAASTLQSGVPSRFSGSGSGTDFTLTISSLQPEDFATYYCQQLNSYPLTFGGGTKVEIK
# notes: also called mAb 2-30; antibody number 2-30
# B3: monoclonal antibody 2-51 (antibody, V domains shown)
# VH: QVQLVQSGAEVKKPGASVKVSCKVSGYTLIELSMHWVRQAPGKGLEWMGGFDPEDVETIYAQQFQGRVTMTEDTSTDTAYMELSSLRSEDTAVYYCATGWAYKSTWYFGYWGQGTLVTVSS
# VL: QSALTQPPSASGSPGQSVTISCTGTSSDVGGYNYVSWYQQHPGKAPKLMIYEVSKRPSGVPDRFSGSKSGNTASLTVSGLQAEDEADYYCSSYAGSRMGFGGGTKLTVL
# notes: also called mAb 2-51; antibody number 2-51
# B4: monoclonal antibody 2-43 (antibody, V domains shown)
# VH: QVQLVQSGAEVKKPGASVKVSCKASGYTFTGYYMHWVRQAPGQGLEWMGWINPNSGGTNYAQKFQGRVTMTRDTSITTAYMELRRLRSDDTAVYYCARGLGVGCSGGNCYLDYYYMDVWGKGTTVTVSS
# VL: QSALTQPASVSGSPGQSITISCTGTSSDVGGYNYVSWYQQHPGKAPKLMIYDVSKRPSGVSNRFSGSKSGNTASLTISGLQAEDEGDYYCSSYTSSSTWVFGGGTKLTVL
# notes: also called mAb 2-43; monoclonal Ab 2-43
# B5: monoclonal antibody 4-18 (antibody, V domains shown)
# VH: QVQLVESGGGVVQPGRSLRLSCAASGFTFSSYGMHWVRQAPGKGLEWVAVISYDGSNKHYADSVKGRFTISRDNSKNTLYLQMNSLRAEDTAVYYCAKDSGYNYGYSWFDPWGQGTLVTVSS
# VL: SYELTQPPSVSVSPGQTARITCSADALAKQYAYWYQQKPGQAPVLVIYKDSERPSGIPERFSGSSSGTTVTLTISGVQAEDEADYYCQSTDNSGTYPNWVFGGGTKLTVL
# notes: also called mAb 4-18; antibody number 4-18
# B6: monoclonal antibody 1-68 (antibody, V domains shown)
# VH: QVQLVQSGAEVKKPGASVKVSCKVSGYTLIELSMHWVRQAPGKGLEWMGGFDPEDAETIYAQKFQGRVTMTEDTSTDTAYMELSSLRSEDTAVYYCATGWAVAGSSDVWYYYYGMDVWGQGTTVTVSS
# VL: QSALTQPPSVSGSPGQSVTISCTGTSSDVGSYNRVSWYQQPPGTAPKLMIYEVSNRPSGVPDRFSGSKSGNTASLTISGLQAEDEADYYCSSYTSSSTYVFGTGTKVTVL
# notes: also called mAb 1-68; antibody number 1-68
# B7: monoclonal antibody 5-7 (antibody, V domains shown)
# VH: QVQLVQSGAEVKKPGASVKVSCKASGYTFTSYYMHWVRQAPGQGLEWMGVINPSGGSTSYAEKFRGRVTMTRDTSTSTVYMELSSLRSEDTAVYYCARDREPHSDSSGYWDSLKYYYYYALDVWGQGTTVTVSS
# VL: B2 VL with D1A, Q42K, K45E, S93T, L96F, G100P, E105D
# notes: also called mAb 5-7; antibody number 5-7
# B8: monoclonal antibody 2-38 (antibody, V domains shown)
# VH: EVQLVESGGGLVKPGGSLRLSCAASGFTFSSYSMNWVRQAPGKGLEWVSSISSSSSYIYYADSVKGRFTISRDNAKNSLYLQMNSLRAEDTAVYYCTRAGWELRLDAFDIWGQGTMVTVSS
# VL: SSELTQDPAVSVALGQTVRITCQGDSLRSSYASWYQQKPGQAPILVIYDKNNRPSGIPDRFSGSSSGNTASLTITGAQAEDEADYYCNSRDSSGILFGGGTKLTVL
# notes: also called mAb 2-38; antibody number 2-38
# B9: monoclonal antibody 2-7 (antibody, V domains shown)
# VH: QITLKESGPTLVKPTQTLTLTCTFSGFSLSTSGVGVGWIRQPPGKALEWLALIYWDDDKRYSPSLKSRLTITKDTSKNQVVLTMTNMDPVDTATYYCAHHKIERIFDYWGQGTLVTVSS
# VL: QSALAQPASVSGSPGQSITISCTGTSSDVGAYNYVSWYQQHPGKAPKLMIYDVSKRPSGVSNRFSGSKSGNTASLTISGLQAEDEADYYCSSYTTSSTVFGGGTKLTVL
# notes: also called mAb 2-7; antibody number 2-7
# B10: monoclonal antibody 1-20 (antibody, V domains shown)
# VH: EVQLVESGGGLIQPGGSLRLSCAASGLTVSSNYMSWVRQAPGKGLEWVSVIYSGGSTFYADSVKGRFTISRDNSKNTLYLQMNSLRAEDTAVYYCARDLFYYGMDVWGQGTTVTVSS
# VL: DIQLTQSPSFLSASVGDRVTITCRASQGISSYLAWYQQKPGKAPKLLIYAASTLQSGVPSRFSGSGSGTEFTLTISSLQPEDFATYYCQQLNSYPCFGPGTKVDIK
# notes: also called mAb 1-20; antibody number 1-20
# B11: monoclonal antibody 2-4 (antibody, V domains shown)
# VH: QVQLVQSGAEVKKPGASVKVSCKASGYTFTGYYMHWVRQAPGQGLEWMGWINPNSGGTNYTQMFQGRVTMTRDTSISTAYMEVSRLRSDDTAVYYCARDRSWAVVYYYMDVWGKGTTVTVSS
# VL: QSALTQPPSASGSPGQSVTISCTGTSSDVGGYNYVSWYQQHPGKAPKLMIYEVSKRPSGVPDRFSGSKSGNTASLTVSGLQAEDEADYYCSSYAGSNNLVFGGGTKLTVL
# notes: also called mAb 2-4; antibody number 2-4
# B12: monoclonal antibody 2-15 (antibody, V domains shown)
# VH: QVQLVQSGAEVKKPGASVRVSCKASGYTFTGYYMHWVRQAPGQGLEWMGWINPISDGTNYAQKFQGWVTMTRDTSISTVYMELSRLRSDDTAVYYCARGGSRCSGGNCYGWAYDAFDIWGQGTMITVSS
# VL: B4 VL with Y34F, G86A, Y88C, W99F, G103T, L107V
# notes: also called mAb 2-15; antibody number 2-15
# B13: monoclonal antibody 2-17 (antibody, V domains shown)
# VH: QVQLVQSGAEVKKPGSSVKVSCKASGGTFSSYAISWVRQAPGQGLEWMGGNIPIFGTANYAQKFQGRVTITADESTSTAYMELSSLRSEDTAVYYCARGVGYRGVIPLNWFDPWGQGTVVTVSS
# VL: EIVMTQSPATLSVSPGERATLSCRASQSVSSDLAWYQHKPGQAPRLLIYGASTRATGIPVRFSGSGSGTEFTLTISSLQSEDFAVYYCQQYNNWPPFTFGGGTKVEIK
# notes: also called mAb 2-17; antibody number 2-17
# B14: monoclonal antibody 1-87 (antibody, V domains shown)
# VH: B6 VH with W100I, A103I, S105P, S106P, D107P, V108S, W109T
# VL: B4 VL with G86A, W99Y, G103T, L107V
# notes: also called mAb 1-87; antibody number 1-87
# Target: T1, SARS-CoV-2 N-terminal domain (NTD) (SARS-CoV-2, UniProt P0DTC2 14-290)
# T1 construct: range 1-290
# Experiment: ELISA
row,Binder,binding result
1,B1,no binding
2,B2,no binding
3,B3,no binding
4,B4,no binding

# Target: T1, SARS-CoV-2 N-terminal domain (NTD)
# Experiment: ELISA (FIG. 10D-F)
row,Binder,binding result
1,B5,binds
2,B6,binds
3,B7,binds

# Target: T1, SARS-CoV-2 N-terminal domain (NTD)
# Experiment: quantitative ELISA
row,Binder,binding result
1,B8,no binding
2,B9,no binding
3,B10,no binding
4,B11,no binding
5,B12,no binding

# Target: T1, SARS-CoV-2 N-terminal domain (NTD)
# Experiment: quantitative ELISA (FIG. 16C, F, I)
row,Binder,binding result
1,B13,binds
2,B14,binds
